Earlier results as cited in PMC3097287.
Where two headings read alike, the source gives them in different places.

Experiments:
ANP (Rattus norvegicus) = ANP (Rattus norvegicus) (UniProt P01161)
[1] = target: NPRA ECD (Rattus norvegicus) (UniProt P18910); assay: sedimentation equilibrium
[2] = target: NPRA ECD (Rattus norvegicus) (UniProt P18910); assay: sedimentation equilibrium; remark: listed apart in the source

UniProt P01161, sequence (P01161 123-150): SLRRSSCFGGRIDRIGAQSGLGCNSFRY

Kd (ANP (Rattus norvegicus)): 1 nM
Kd [1]: 10 nM
Kd [2]: 500 nM
Substance: NPRA ECD (from UniProt P18910)
